From patent US20240245793A1, “PSD-95 INHIBITORS AND USES THEREOF” (priority 2021, published 2024)

B1: compound 11, NPEG4-(KETLV)2 fused to L-TAT (Ac-[…]-) (peptide)
peptide: KETLV
chain: […]
modifications: not checked
B2: compound 13, NPEG4-(KETTV)2 fused to L-TAT (Ac-[…]-) (peptide)
peptide: KETTV
chain: […]
modifications: not checked
B3: compound 15, NPEG4-(KETVV)2 fused to L-TAT (Ac-[…]-) (peptide)
peptide: KETVV
chain: […]
modifications: not checked
B4: compound 17, NPEG4-(KETRV)2 fused to L-TAT (Ac-[…]-) (peptide)
peptide: KETRV
chain: […]
modifications: not checked
B5: compound 19, NPEG4-(ISTDV)2 fused to L-TAT (Ac-[…]-) (peptide)
peptide: ISTDV
chain: […]
modifications: not checked
B6: compound 21, NPEG4-(VETVV)2 fused to L-TAT (Ac-[…]-) (peptide)
peptide: VETVV
chain: […]
modifications: not checked

What follows are binders tested against PDZ1-2 of PSD-95 (postsynaptic density protein-95), P78352 (assay: FP competition against fluorescent dimeric probe, Ki from IC50).
Sequence of PDZ1-2 of PSD-95 (postsynaptic density protein-95), P78352 (P78352 61-249 limits assumed): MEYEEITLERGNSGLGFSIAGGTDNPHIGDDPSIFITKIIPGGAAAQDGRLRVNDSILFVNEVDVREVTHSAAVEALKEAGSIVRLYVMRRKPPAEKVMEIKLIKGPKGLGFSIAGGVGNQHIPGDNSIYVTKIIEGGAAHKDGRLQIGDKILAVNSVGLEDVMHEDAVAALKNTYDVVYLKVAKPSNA
B1 showed a Ki of 5.4 nM.
For B2, the Ki was 6.5 nM.
Work on B3 yielded a Ki of 2.1 nM.
Binder B4 has a Ki of 6.6 nM.
In the case of B5, the Ki is reported as 36.1 nM.
B6 showed a Ki of 15.8 nM.
